{"source": "patent US20110098217A1", "about": "(INDIANA UNIVERSITY RESEARCH AND TECHNOLOGY, published 2011)", "molecules": {"B1": {"name": "K40-chol G(6-40) (peptide)", "peptide": "FTSDYSKYLDERRAKDFVQWLMDTGPSSGAPPPSK", "modifications": "PLA at position 6; lactam bridge Glu16-Lys20; Lys40(COCH2CH2S-Chol) cholesterol conjugate; C-terminal amide"}, "B2": {"name": "[(CSA-2)^9] Glucagon(aa2-29)-NH2 (peptide)", "peptide": "SQGTFTS[CSA‑2]YSKYLDSRRAQDFVQWLMNT-NH2", "modifications": "N-terminus assumed", "SMILES": "CSCC[C@H](NC(=O)[C@H](CC(C)C)NC(=O)[C@H](Cc1c[nH]c2ccccc12)NC(=O)[C@H](CCC(N)=O)NC(=O)[C@@H](NC(=O)[C@H](Cc1ccccc1)NC(=O)[C@H](CC(=O)O)NC(=O)[C@H](CCC(N)=O)NC(=O)[C@H](C)NC(=O)[C@H](CCCNC(=N)N)NC(=O)[C@H](CCCNC(=N)N)NC(=O)[C@H](CO)NC(=O)[C@H](CC(=O)O)NC(=O)[C@H](CC(C)C)NC(=O)[C@H](Cc1ccc(O)cc1)NC(=O)[C@H](CCCCN)NC(=O)[C@H](CO)NC(=O)[C@H](Cc1ccc(O)cc1)NC(=O)[C@H](CSCCC(=O)O)NC(=O)[C@H](CO)NC(=O)[C@@H](NC(=O)[C@H](Cc1ccccc1)NC(=O)[C@@H](NC(=O)CNC(=O)[C@H](CCC(N)=O)NC(=O)[C@@H](N)CO)[C@@H](C)O)[C@@H](C)O)C(C)C)C(=O)N[C@@H](CC(N)=O)C(=O)N[C@H](C(N)=O)[C@@H](C)O", "notes": "also called peptide no"}, "B3": {"name": "[PLA^5, E^9]Glucagon(aa5-29)-NH2 (peptide)", "peptide": "[PhLac]FTSEYSKYLDSRRAQDFVQWLMNT-NH2", "modifications": "N-terminus assumed", "SMILES": "CSCC[C@H](NC(=O)[C@H](CC(C)C)NC(=O)[C@H](Cc1c[nH]c2ccccc12)NC(=O)[C@H](CCC(N)=O)NC(=O)[C@@H](NC(=O)[C@H](Cc1ccccc1)NC(=O)[C@H](CC(=O)O)NC(=O)[C@H](CCC(N)=O)NC(=O)[C@H](C)NC(=O)[C@H](CCCNC(=N)N)NC(=O)[C@H](CCCNC(=N)N)NC(=O)[C@H](CO)NC(=O)[C@H](CC(=O)O)NC(=O)[C@H](CC(C)C)NC(=O)[C@H](Cc1ccc(O)cc1)NC(=O)[C@H](CCCCN)NC(=O)[C@H](CO)NC(=O)[C@H](Cc1ccc(O)cc1)NC(=O)[C@H](CCC(=O)O)NC(=O)[C@H](CO)NC(=O)[C@@H](NC(=O)[C@H](Cc1ccccc1)NC(=O)[C@@H](O)Cc1ccccc1)[C@@H](C)O)C(C)C)C(=O)N[C@@H](CC(N)=O)C(=O)N[C@H](C(N)=O)[C@@H](C)O"}, "B4": {"name": "[PLA^4, E^9]Glucagon(aa4-29)-NH2 (peptide)", "peptide": "[PhLac]TFTSEYSKYLDSRRAQDFVQWLMNT-NH2", "modifications": "N-terminus assumed", "SMILES": "CSCC[C@H](NC(=O)[C@H](CC(C)C)NC(=O)[C@H](Cc1c[nH]c2ccccc12)NC(=O)[C@H](CCC(N)=O)NC(=O)[C@@H](NC(=O)[C@H](Cc1ccccc1)NC(=O)[C@H](CC(=O)O)NC(=O)[C@H](CCC(N)=O)NC(=O)[C@H](C)NC(=O)[C@H](CCCNC(=N)N)NC(=O)[C@H](CCCNC(=N)N)NC(=O)[C@H](CO)NC(=O)[C@H](CC(=O)O)NC(=O)[C@H](CC(C)C)NC(=O)[C@H](Cc1ccc(O)cc1)NC(=O)[C@H](CCCCN)NC(=O)[C@H](CO)NC(=O)[C@H](Cc1ccc(O)cc1)NC(=O)[C@H](CCC(=O)O)NC(=O)[C@H](CO)NC(=O)[C@@H](NC(=O)[C@H](Cc1ccccc1)NC(=O)[C@@H](NC(=O)[C@@H](O)Cc1ccccc1)[C@@H](C)O)[C@@H](C)O)C(C)C)C(=O)N[C@@H](CC(N)=O)C(=O)N[C@H](C(N)=O)[C@@H](C)O"}, "B5": {"name": "[(CSA-1]^9] Glucagon(aa2-29)-NH2 (peptide)", "peptide": "SQGTFTS[CSA‑1]YSKYLDSRRAQDFVQWLMNT-NH2", "modifications": "N-terminus assumed", "SMILES": "CSCC[C@H](NC(=O)[C@H](CC(C)C)NC(=O)[C@H](Cc1c[nH]c2ccccc12)NC(=O)[C@H](CCC(N)=O)NC(=O)[C@@H](NC(=O)[C@H](Cc1ccccc1)NC(=O)[C@H](CC(=O)O)NC(=O)[C@H](CCC(N)=O)NC(=O)[C@H](C)NC(=O)[C@H](CCCNC(=N)N)NC(=O)[C@H](CCCNC(=N)N)NC(=O)[C@H](CO)NC(=O)[C@H](CC(=O)O)NC(=O)[C@H](CC(C)C)NC(=O)[C@H](Cc1ccc(O)cc1)NC(=O)[C@H](CCCCN)NC(=O)[C@H](CO)NC(=O)[C@H](Cc1ccc(O)cc1)NC(=O)[C@H](CSCC(=O)O)NC(=O)[C@H](CO)NC(=O)[C@@H](NC(=O)[C@H](Cc1ccccc1)NC(=O)[C@@H](NC(=O)CNC(=O)[C@H](CCC(N)=O)NC(=O)[C@@H](N)CO)[C@@H](C)O)[C@@H](C)O)C(C)C)C(=O)N[C@@H](CC(N)=O)C(=O)N[C@H](C(N)=O)[C@@H](C)O", "notes": "also called peptide no"}, "B6": {"name": "[G4T5, E9, E16K20(Lactam), D28] G(4-29) (peptide)", "peptide": "GTFTSEYSKYLDERRAKDFVQWLMDT-NH2", "modifications": "lactam 13-17; N-terminus assumed", "SMILES": "CSCC[C@H](NC(=O)[C@H](CC(C)C)NC(=O)[C@H](Cc1c[nH]c2ccccc12)NC(=O)[C@H](CCC(N)=O)NC(=O)[C@@H](NC(=O)[C@H](Cc1ccccc1)NC(=O)[C@H](CC(=O)O)NC(=O)[C@@H]1CCCCNC(=O)CC[C@H](NC(=O)[C@H](CC(=O)O)NC(=O)[C@H](CC(C)C)NC(=O)[C@H](Cc2ccc(O)cc2)NC(=O)[C@H](CCCCN)NC(=O)[C@H](CO)NC(=O)[C@H](Cc2ccc(O)cc2)NC(=O)[C@H](CCC(=O)O)NC(=O)[C@H](CO)NC(=O)[C@@H](NC(=O)[C@H](Cc2ccccc2)NC(=O)[C@@H](NC(=O)CN)[C@@H](C)O)[C@@H](C)O)C(=O)N[C@@H](CCCNC(=N)N)C(=O)N[C@@H](CCCNC(=N)N)C(=O)N[C@@H](C)C(=O)N1)C(C)C)C(=O)N[C@@H](CC(=O)O)C(=O)N[C@H](C(N)=O)[C@@H](C)O"}}, "key": {"[1]": {"target": "human glucagon receptor (human) (UniProt P47871)", "sequence (P47871 26-477)": "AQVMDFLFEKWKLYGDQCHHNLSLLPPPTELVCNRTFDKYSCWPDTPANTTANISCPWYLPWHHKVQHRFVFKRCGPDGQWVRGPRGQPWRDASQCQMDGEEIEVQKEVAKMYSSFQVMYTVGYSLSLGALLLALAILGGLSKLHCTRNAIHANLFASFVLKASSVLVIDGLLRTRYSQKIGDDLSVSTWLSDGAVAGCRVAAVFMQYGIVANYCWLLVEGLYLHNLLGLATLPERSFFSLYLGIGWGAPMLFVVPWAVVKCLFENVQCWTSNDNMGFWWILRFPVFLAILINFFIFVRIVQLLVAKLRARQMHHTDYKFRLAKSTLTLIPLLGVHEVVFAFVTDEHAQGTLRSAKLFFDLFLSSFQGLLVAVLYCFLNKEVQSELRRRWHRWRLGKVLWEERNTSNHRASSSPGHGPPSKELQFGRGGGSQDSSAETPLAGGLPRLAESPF", "experiment": "cell-based or functional assay"}, "[2]": {"target": "T1, human glucagon receptor (human, UniProt P47871 26-477)", "T1 construct": "whole, on cells; cAMP assay: transfected HEK293 cells", "T1 sequence (P47871 26-477)": "as above", "experiment": "SPA competition vs 125I-glucagon, receptor membranes"}, "[3]": {"target": "human GLP-1 receptor (human) (UniProt P43220)", "sequence (P43220 24-463)": "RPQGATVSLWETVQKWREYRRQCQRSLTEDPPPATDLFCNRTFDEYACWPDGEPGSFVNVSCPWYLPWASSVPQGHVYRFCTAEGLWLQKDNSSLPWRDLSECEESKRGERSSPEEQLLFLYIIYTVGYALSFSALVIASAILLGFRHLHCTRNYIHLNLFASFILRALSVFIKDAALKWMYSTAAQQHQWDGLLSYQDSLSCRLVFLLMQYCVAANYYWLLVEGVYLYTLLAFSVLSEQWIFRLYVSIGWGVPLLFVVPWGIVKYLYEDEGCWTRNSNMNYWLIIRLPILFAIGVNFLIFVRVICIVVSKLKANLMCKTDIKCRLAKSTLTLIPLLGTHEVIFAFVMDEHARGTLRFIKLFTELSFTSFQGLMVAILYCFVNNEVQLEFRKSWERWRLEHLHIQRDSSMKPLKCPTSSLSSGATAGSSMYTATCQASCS", "experiment": "cell-based or functional assay"}, "[4]": {"target": "human glucagon receptor (human) (UniProt P47871)", "experiment": "cell-based or functional assay", "remark": "listed apart in the source"}, "[5]": {"target": "T1, human glucagon receptor", "experiment": "cell-based or functional assay"}, "[6]": {"target": "T2, human GLP-1 receptor (human, UniProt P43220 24-463)", "experiment": "cell-based or functional assay"}, "[7]": {"target": "T2, human GLP-1 receptor", "experiment": "cell-based or functional assay", "remark": "listed apart in the source"}, "[8]": {"target": "T1, human glucagon receptor", "experiment": "cell-based or functional assay", "remark": "listed apart in the source"}, "[9]": {"target": "T1, human glucagon receptor", "experiment": "cell-based or functional assay", "remark": "listed apart in the source"}, "[10]": {"target": "T1, human glucagon receptor", "experiment": "cell-based or functional assay", "remark": "listed apart in the source"}, "[11]": {"target": "T1, human glucagon receptor", "experiment": "cell-based or functional assay", "remark": "listed apart in the source"}, "[12]": {"target": "T1, human glucagon receptor", "experiment": "cell-based or functional assay", "remark": "listed apart in the source"}}, "note": "Like-named read-outs stand apart in the source and are kept apart here. Numbered stars: 1 amine (or outer) side, 2 acyl side, 3 side chain; on linkers, the order of the positions; unused ones are H or OH. Bridge positions count the residues as written; N and C are the ends. Square brackets hold non-standard residues; d marks the D form. Ends that are not written are not given here. CSA‑2 = Cys(S-CH2CH2COOH), S-(2-carboxyethyl)-L-cysteine, O=C([C@H](CSCCC(=O)[*:3])N[*:1])[*:2]; CSA‑1 = Cys(S-CH2COOH), S-carboxymethyl-L-cysteine, O=C([C@H](CSCC(=O)[*:3])N[*:1])[*:2]; PhLac = O=C(O)[C@@H](O)Cc1ccccc1; NSG‑1 = not defined here; NSG‑2 = not defined here", "data": [{"molecule": "[PLA6, E9, E16K20(Lactam)]G(6-39) (peptide)", "values": [{"measurement": "Glucagon antagonism IC50 (inhibit 0.2-0.8 nM glucagon)", "setting": "[1]", "result": 20.5, "unit": "nM"}]}, {"molecule": "SQGTFTS[NSG‑1]YSKYLDSRRAQDFVQWLMNT-NH2 (reading uncertain, also called peptide no)", "note": "[[(NSG-1)^9] Glucagon(aa2-29)-NH2]", "values": [{"measurement": "IC50", "setting": "[2]", "result": 983, "unit": "nM"}]}, {"molecule": "B1", "values": [{"measurement": "GLP-1 agonism EC50", "setting": "[3]", "result": 47, "unit": "nM"}, {"measurement": "Glucagon antagonism IC50 (inhibit 0.4 nM glucagon)", "setting": "[4]", "result": 312, "unit": "nM"}]}, {"molecule": "B2", "values": [{"measurement": "IC50", "setting": "[2]", "result": 13.3, "unit": "nM"}]}, {"molecule": "SQGTFTS[NSG‑2]YSKYLDSRRAQDFVQWLMNT-NH2 (reading uncertain, also called peptide no)", "note": "[[(NSG-2)^9] Glucagon(aa2-29)-NH2]", "values": [{"measurement": "IC50", "setting": "[2]", "result": 2350, "unit": "nM"}]}, {"molecule": "B3", "values": [{"measurement": "IC50 (cAMP, inhibit 0.8 mM Glucagon)", "setting": "[5]", "result": 328, "unit": "nM"}]}, {"molecule": "HSQGTFTSDYARYLDARRAREFIKWLVRGRG", "note": "[ANK2 (Bayer peptide)]", "values": [{"measurement": "GLP-1 EC50", "setting": "[6]", "result": 0.28, "unit": "nM"}, {"measurement": "GLP-1 agonism EC50", "setting": "[7]", "result": 0.28, "unit": "nM"}]}, {"molecule": "B4", "values": [{"measurement": "IC50 (cAMP, inhibit 0.8 mM Glucagon)", "setting": "[5]", "result": 84.4, "unit": "nM"}]}, {"molecule": "Ac-[PhLac]TSEYSKYLDSRRAQDFVQWLMNT-NH2", "note": "[[Ac-PLA^6, E^9]Glucagon(aa6-29)-NH2]", "values": [{"measurement": "IC50 (cAMP, inhibit 0.8 mM Glucagon)", "setting": "[5]", "result": 38.1, "unit": "nM"}]}, {"molecule": "B5", "values": [{"measurement": "IC50", "setting": "[2]", "result": 12.7, "unit": "nM"}]}, {"molecule": "AEGTFTSEYSKYLDERRAKDFVQWLMDT-NH2 (lactam 15-19)", "note": "[[A2E3, E9, E16K20(Lactam), D28]G(2-29)]", "values": [{"measurement": "Glucagon IC50", "setting": "[8]", "result": 63, "unit": "nM"}, {"measurement": "Glucagon antagonism IC50 (inhibit 0.8 nM glucagon)", "setting": "[9]", "result": 63.2, "unit": "nM"}, {"measurement": "Glucagon antagonism IC50 (inhibit 0.8 nM glucagon)", "setting": "[10]", "result": 63.2, "unit": "nM"}, {"measurement": "Glucagon antagonism IC50 (inhibit 0.8 nM glucagon)", "setting": "[11]", "result": 151, "unit": "nM"}, {"measurement": "Glucagon antagonism IC50 (inhibit 0.2-0.8 nM glucagon)", "setting": "[12]", "result": 63.2, "unit": "nM"}]}, {"molecule": "B6", "values": [{"measurement": "GLP-1 EC50", "setting": "[6]", "result": 151, "unit": "nM"}, {"measurement": "GLP-1 agonism EC50", "setting": "[7]", "result": 151, "unit": "nM"}, {"measurement": "Glucagon antagonism IC50 (inhibit 0.8 nM glucagon)", "setting": "[9]", "result": 12.7, "unit": "nM"}]}, {"molecule": "FTSEYSKYLDERRAQDFVQWLMNTGPSSGAPPPS (PLA at position 6; C-terminal amide)", "note": "[[PLA6, E9, E16]G(6-39)]", "values": [{"measurement": "GLP-1 agonism EC50", "setting": "[3]", "result": 1760, "unit": "nM"}, {"measurement": "Glucagon antagonism IC50 (inhibit 0.2-0.8 nM glucagon)", "setting": "[4]", "result": 58.1, "unit": "nM"}]}]}
